Assay results published in patent US7943296B2, “Methods of screening using a natriuretic peptide receptor” (Oregon Health & Science University, priority 2005, dated 2011).

What was measured:
NPRA = molecular target: T1, NPRA (Rattus norvegicus, UniProt P18910); assay: Total cGMP by enzyme immunoassay in NP-treated CFs; type: cell-based; conditions: fragment expressed alone, no ANP; 100 μM IBMX
T1 construct: endogenous in cells; host or cells: primary neonatal rat cardiac fibroblasts, transfected with insertless vector or sNRF^(806-900)
T1 sequence (P18910 29-1057): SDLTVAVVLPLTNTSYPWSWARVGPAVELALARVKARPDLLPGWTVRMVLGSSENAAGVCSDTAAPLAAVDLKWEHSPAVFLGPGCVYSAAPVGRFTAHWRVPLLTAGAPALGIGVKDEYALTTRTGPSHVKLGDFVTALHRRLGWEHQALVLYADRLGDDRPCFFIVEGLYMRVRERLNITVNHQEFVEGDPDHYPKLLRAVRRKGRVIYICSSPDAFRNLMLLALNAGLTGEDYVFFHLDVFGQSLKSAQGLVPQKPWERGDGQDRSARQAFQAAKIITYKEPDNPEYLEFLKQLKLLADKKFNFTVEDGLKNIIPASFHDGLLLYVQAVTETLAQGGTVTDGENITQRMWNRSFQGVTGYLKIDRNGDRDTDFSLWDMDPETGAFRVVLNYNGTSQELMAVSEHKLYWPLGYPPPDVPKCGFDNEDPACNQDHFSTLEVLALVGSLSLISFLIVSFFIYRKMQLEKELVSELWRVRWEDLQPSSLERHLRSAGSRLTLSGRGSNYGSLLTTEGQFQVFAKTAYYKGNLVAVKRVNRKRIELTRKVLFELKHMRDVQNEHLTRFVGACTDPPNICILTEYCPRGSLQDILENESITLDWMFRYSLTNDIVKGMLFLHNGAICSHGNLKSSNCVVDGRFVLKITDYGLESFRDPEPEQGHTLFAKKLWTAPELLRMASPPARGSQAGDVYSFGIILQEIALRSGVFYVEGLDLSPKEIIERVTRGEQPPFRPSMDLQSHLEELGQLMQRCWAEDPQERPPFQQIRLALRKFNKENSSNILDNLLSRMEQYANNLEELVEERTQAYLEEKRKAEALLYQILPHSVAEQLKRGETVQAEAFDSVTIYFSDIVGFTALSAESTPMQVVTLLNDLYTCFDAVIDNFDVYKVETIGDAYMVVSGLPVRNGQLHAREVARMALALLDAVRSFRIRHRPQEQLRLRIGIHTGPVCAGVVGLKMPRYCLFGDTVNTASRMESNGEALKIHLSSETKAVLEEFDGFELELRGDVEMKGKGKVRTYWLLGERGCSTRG
Experimental: The ability of sNRF^(806-900) to reduce or inhibit downstream effects by modulating the intrinsic guanylyl cyclase activity of NPRA, was determined by measuring total cGMP levels in NP-treated CFs. CFs were transfected with insertless vector or sNRF^(806-900) as described in Example 7 and treated with ANP (100 nM) for 15 minutes. cGMP concentration was determined by enzyme immunoassay using a commercial kit (Enzyme immunoassay Biotrak EIA System, Amersham Biosciences). In all experiments, cells were treated with 100 μM IBMX with or without ANP.

full-length NPRA = molecular target: T2, full-length NPRA (Homo sapiens, UniProt P16066); assay: Association of NPRA fragment with full-length NPRA; type: binding; conditions: in the presence or absence of activated PKG
T2 sequence (P16066 33-1061): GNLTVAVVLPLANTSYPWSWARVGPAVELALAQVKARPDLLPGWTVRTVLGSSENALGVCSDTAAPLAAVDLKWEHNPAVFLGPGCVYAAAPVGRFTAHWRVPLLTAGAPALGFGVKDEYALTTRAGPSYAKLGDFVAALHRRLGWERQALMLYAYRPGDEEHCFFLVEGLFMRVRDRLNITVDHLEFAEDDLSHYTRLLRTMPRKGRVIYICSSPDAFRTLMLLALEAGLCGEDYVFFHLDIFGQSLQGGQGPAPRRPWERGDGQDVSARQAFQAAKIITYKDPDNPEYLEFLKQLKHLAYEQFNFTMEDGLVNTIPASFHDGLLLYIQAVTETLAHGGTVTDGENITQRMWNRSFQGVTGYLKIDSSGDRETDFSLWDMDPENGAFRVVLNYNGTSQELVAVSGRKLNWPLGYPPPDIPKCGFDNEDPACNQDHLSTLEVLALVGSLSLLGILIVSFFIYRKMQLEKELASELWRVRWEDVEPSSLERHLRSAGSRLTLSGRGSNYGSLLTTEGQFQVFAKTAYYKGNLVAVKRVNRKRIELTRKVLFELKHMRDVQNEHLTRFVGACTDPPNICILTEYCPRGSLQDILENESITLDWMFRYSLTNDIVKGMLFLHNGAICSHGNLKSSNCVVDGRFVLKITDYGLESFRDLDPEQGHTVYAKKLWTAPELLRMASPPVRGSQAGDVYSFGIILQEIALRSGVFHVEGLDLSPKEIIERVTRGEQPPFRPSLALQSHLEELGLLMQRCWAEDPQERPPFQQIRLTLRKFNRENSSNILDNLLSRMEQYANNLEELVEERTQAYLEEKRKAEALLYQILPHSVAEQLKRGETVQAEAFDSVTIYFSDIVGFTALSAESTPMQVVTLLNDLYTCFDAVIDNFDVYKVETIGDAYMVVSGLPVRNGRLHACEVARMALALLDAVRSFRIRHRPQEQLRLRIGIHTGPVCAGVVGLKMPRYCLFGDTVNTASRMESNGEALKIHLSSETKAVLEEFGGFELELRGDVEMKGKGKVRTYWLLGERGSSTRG

[1] = system: cardiac fibroblasts (CFs); assay: bFGF-induced α-SMA protein expression in CFs (Western blot); type: cell-based, rat; conditions: fragment expressed; 10 ng/ml FGF 48 hours; 100 nM ANP
Experimental: NP's ability to inhibit growth factor-induced CF differentiation into myofibroblasts was determined as follows. CFs were transiently transfected with insertless pcDNA3 vector or pcDNA3 encoding sNRF^(806-900) (see Example 7). The transfected CFs were then treated for 48 hours with 10 ng/ml basic fibroblast growth factor (FGF; Sigma-Aldrich #F0291) in the presence or absence of 100 nM ANP. Alpha-smooth muscle actin (α-SMA) protein expression, the principal marker of CF differentiation, was assessed by Western blotting and immunofluorescence microscopy. Vimentin staining was used as a loading control because it is expressed equally in fibroblasts and transdifferentiated myofibroblasts.

“sNRF^(806-900): intracellular NPRA fragment, residues 806-900, excludes the cyclase-containing domain; shortest fragment observed to associate with PKG” was tested, and the cGMP levels (NPRA) was “significantly increased cGMP levels”, the “association with full-length NPRA” value (full-length NPRA) was “failed to associate with full-length NPRA” and the “ANP's inhibitory effect on growth factor-induced α-SMA protein expression” value [1] was “reversed ANP's inhibitory effect”.
